Results taken from publication doi:10.1101/594168, “Pat1 activates late steps in mRNA decay by multiple mechanisms” (bioRxiv, 2019).
Numbering of substitutions follows the chain as printed. Names may count otherwise.

B1: MBP-Pat1 317-754 (domain or fragment, S. pombe, UniProt O42958 317-754, looked up)
chain: MTRSDKSFIARIQISQLMSEDPESDDFYYRVYSIIRGRKPSEEEASHFIQTYLGPSNNRRRGRRSENPMQKLQQQLQRLVSSAKERPKATQLSLEGALGKIAVNTVRTPRQLLNVKRPTEPASSNSSLNNFSGFSTKKDVLHAIEKVYDLLLDFEQALRKASTLETTDQEQIDTWKTTLSEKLESIWKALYINESLEASSKTRPPFISIISHPKGMRLLPRLFPHLSKEQQISILKVVVYNFDSLDIVLRGTFDVNGELPLDVVSEMSSFTQFIIPPLLTIVNELDLETINNLFSQLLNRTNAVYLIQTKIGLSFLTLFISRAEILKQSGTVNQNEKEEWENTFNVMFNRVKGHFSTVFPPPNARAYADESYPWEFLAACATAASSEQHFTLVSETRDRVLDNIITSKRAPSEIAVVRISNVNLFLNAMGLDARQLSA
notes: also called PatMC lacking the LAR; source: E. coli BL21(DE3)*, purified (Ni-NTA, SEC); not shown: His6, N-terminal, kept; MBP, N-terminal, kept
B2: MBP-Pat1 296-431 (domain or fragment, S. pombe, UniProt O42958 296-431, looked up)
chain: LDEKRQKLERDHMLMAQCAGLMTRSDKSFIARIQISQLMSEDPESDDFYYRVYSIIRGRKPSEEEASHFIQTYLGPSNNRRRGRRSENPMQKLQQQLQRLVSSAKERPKATQLSLEGALGKIAVNTVRTPRQLLNV
notes: also called construct containing most of the middle domain of Pat1; source: E. coli BL21(DE3)*, purified (Ni-NTA, SEC); not shown: His6, N-terminal, kept; MBP, N-terminal, kept
B3: MBP-PatMC (Pat1 residues 296-754) (domain or fragment, S. pombe, UniProt O42958 296-754, looked up)
chain: LDEKRQKLERDHMLMAQCAGLMTRSDKSFIARIQISQLMSEDPESDDFYYRVYSIIRGRKPSEEEASHFIQTYLGPSNNRRRGRRSENPMQKLQQQLQRLVSSAKERPKATQLSLEGALGKIAVNTVRTPRQLLNVKRPTEPASSNSSLNNFSGFSTKKDVLHAIEKVYDLLLDFEQALRKASTLETTDQEQIDTWKTTLSEKLESIWKALYINESLEASSKTRPPFISIISHPKGMRLLPRLFPHLSKEQQISILKVVVYNFDSLDIVLRGTFDVNGELPLDVVSEMSSFTQFIIPPLLTIVNELDLETINNLFSQLLNRTNAVYLIQTKIGLSFLTLFISRAEILKQSGTVNQNEKEEWENTFNVMFNRVKGHFSTVFPPPNARAYADESYPWEFLAACATAASSEQHFTLVSETRDRVLDNIITSKRAPSEIAVVRISNVNLFLNAMGLDARQLSA
notes: The MBP tag was not removed from constructs that contain the middle domain; also called SpPatMC; H6MBP-PatMC; source: E. coli BL21(DE3)*, purified (Ni-NTA, SEC); not shown: His6, N-terminal, kept; MBP, N-terminal, kept
B4: MBP-PatMC L457A/E461K (domain or fragment, S. pombe, UniProt O42958 296-754, looked up)
chain: B3 chain with L162A, E166K
notes: also called SpPatMC L457A/E461K; Mut; source: E. coli BL21(DE3)*, purified (Ni-NTA, SEC); not shown: His6, N-terminal, kept; MBP, N-terminal, kept

These binders were tested against T1, Lsm1-7 complex (S. pombe, UniProt P87173 1-140; O94408 1-96; Q9Y7M4 1-93; O14352 1-121; O42978 1-80; Q9UUI1 1-75; …) (assay: pull-down; 10 µM MBP-tagged Pat1 construct and 10 µM Lsm1-7 mixed 15 min at room temperature, bound to amylose beads, washed four times, eluted with 10 mM maltose; SEC buffer (20 mM HEPES pH 7, 150 mM NaCl, 1 mM DTT); SDS-PAGE, Instant Blue stain). Conditions: both partners purified.
T1 construct: Lsm1, S. pombe; Lsm2, S. pombe; Lsm3, S. pombe; Lsm4, S. pombe; Lsm5, S. pombe; Lsm6, S. pombe; Lsm7, S. pombe; Heteroheptameric ring formed beforehand; the His6-TEV tag stood on the N-terminus of Lsm1 and was cleaved with TEV protease; also called Lsm1-7 ring; source: E. coli BL21(DE3)*, co-expressed from a polycistronic gene, purified (Ni-NTA, heparin, SEC); not shown: His6, N-terminal, …

Binding result, binds:
B1
B2
B3
B4
